Measured values as given in article PMC8933513 (2022).
Residue numbers refer to the chain shown, from its start.

Tests used:
Experiment in all cases: SPR
[1] = biological target: T1, pAPN ectodomain W424A mutant (pig, UniProt P15145 58-961, W424A)
T1 sequence: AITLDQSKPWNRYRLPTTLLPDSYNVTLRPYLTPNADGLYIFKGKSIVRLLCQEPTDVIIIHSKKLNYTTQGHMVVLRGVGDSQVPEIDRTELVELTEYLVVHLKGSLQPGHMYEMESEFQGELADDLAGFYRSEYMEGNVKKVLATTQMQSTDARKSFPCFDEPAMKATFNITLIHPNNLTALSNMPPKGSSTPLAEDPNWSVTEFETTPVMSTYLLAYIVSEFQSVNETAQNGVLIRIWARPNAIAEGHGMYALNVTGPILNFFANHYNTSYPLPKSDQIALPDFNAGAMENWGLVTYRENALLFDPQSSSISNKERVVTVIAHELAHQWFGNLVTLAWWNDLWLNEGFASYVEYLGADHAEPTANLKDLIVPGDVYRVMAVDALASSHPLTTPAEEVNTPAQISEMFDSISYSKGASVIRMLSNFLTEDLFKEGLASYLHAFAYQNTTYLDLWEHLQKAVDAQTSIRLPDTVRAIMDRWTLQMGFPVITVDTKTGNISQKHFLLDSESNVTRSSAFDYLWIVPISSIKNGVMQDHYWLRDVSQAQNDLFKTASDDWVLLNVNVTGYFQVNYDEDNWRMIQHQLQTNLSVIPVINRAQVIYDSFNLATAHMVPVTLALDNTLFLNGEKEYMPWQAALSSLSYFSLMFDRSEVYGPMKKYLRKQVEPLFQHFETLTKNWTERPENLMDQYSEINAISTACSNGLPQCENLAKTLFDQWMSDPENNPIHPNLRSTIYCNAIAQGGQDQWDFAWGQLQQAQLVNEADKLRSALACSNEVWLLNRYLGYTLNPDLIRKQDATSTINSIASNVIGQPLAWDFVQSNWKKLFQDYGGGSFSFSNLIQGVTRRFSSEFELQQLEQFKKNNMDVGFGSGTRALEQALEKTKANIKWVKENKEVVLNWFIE

[2] = biological target: hAPN ectodomain K379A mutant (human, UniProt P15144 62-963, K379A)
[3] = biological target: hAPN ectodomain Y316A mutant (human, UniProt P15144 62-963, Y316A)
[4] = biological target: T2, human aminopeptidase N (hAPN) ectodomain, residues 62-963, wild type (human, UniProt P15144 62-963)
T2 chain: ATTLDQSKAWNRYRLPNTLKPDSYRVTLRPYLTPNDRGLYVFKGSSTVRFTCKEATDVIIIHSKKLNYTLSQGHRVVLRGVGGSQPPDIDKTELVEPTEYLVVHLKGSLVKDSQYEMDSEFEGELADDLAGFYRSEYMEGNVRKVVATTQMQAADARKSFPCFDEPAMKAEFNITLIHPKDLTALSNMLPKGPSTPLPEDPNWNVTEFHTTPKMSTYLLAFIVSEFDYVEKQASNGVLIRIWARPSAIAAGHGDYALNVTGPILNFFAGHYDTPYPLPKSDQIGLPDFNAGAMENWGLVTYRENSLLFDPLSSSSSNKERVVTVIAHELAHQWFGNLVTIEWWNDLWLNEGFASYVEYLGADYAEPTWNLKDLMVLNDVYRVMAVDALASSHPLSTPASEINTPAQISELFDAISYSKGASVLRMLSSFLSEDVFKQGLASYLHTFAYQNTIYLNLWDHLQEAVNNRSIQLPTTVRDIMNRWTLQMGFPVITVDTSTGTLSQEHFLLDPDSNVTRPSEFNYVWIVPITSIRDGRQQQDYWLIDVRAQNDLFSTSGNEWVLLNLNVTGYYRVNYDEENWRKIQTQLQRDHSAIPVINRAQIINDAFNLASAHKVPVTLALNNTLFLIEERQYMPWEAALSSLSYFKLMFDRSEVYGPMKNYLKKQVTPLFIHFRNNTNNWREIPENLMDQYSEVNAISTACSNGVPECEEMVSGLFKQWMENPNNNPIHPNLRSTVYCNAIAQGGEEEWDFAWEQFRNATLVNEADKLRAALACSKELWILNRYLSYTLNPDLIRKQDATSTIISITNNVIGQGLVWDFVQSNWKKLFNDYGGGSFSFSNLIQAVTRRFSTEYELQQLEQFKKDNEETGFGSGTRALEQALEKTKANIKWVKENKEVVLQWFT

[5] = biological target: hAPN ectodomain E742A mutant (human, UniProt P15144 62-963, E742A)
[6] = biological target: T3, pAPN ectodomain E421A mutant (pig, UniProt P15145 58-961, E421A)
T3 sequence: T1 sequence with E364A, A367W

hAPN ectodomain K379A mutant, sequence (P15144 62-963 K379A): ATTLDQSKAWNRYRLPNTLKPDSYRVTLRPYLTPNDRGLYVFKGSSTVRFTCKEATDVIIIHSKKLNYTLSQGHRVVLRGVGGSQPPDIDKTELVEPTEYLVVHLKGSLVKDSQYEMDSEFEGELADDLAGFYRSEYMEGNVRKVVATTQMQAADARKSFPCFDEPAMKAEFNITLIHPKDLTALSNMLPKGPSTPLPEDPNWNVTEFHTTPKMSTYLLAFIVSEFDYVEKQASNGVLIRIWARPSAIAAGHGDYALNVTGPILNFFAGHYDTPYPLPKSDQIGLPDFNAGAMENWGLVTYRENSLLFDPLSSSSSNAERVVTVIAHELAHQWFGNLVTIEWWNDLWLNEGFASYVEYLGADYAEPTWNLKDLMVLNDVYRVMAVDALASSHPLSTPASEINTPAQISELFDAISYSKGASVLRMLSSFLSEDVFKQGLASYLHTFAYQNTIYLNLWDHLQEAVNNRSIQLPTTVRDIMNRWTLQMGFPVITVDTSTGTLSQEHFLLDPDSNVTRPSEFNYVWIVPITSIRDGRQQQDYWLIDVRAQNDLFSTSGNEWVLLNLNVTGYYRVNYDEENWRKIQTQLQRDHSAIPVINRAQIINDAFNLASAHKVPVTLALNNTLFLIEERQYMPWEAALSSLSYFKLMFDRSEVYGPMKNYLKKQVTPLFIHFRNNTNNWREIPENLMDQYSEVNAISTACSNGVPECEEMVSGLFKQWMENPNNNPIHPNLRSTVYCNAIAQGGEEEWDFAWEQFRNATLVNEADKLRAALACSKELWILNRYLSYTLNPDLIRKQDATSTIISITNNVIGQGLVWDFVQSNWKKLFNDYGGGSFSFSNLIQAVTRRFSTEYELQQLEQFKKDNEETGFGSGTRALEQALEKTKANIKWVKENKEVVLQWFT
hAPN ectodomain Y316A mutant, sequence (P15144 62-963 Y316A): as the sequence (P15144 62-963 K379A) above, with Y255A, A318K counted along it

B1: PDCoV spike (S) protein receptor binding domain (RBD), residues 300-419, wild type (domain or fragment)
chain: PKLPELEVVQLNISAHMDFGEARLDSVTINGNTSYCVTKPYFRLETNFMCTGCTMNLRTDTCSFDLSAVNNGMSFSQFCLSTESGACEMKIIVTYVWNYLLRQRLYVTAVEGQTHTGTTS
Work on B1 yielded a Kd [1] of 116 µM, a Kd [2] of 444 µM and a Kd [3] of 37.1 µM. It also gave a Kd [4] of 3.71 µM, a Kd [5] of 13.7 µM and a Kd [6] of 125 µM.
